From paper PMC11102226, “Three-dimensional DNA nanomachine biosensor coupled with CRISPR Cas12a cascade amplification for ultrasensitive detection of carcinoembryonic antigen” come the findings set out here.

The target in this data set is carcinoembryonic antigen (CEA) (UniProt P06731 35-685). Kind of data set: agarose gel (displacement of Walker strand from aptamer-Walker duplex); 10 ng/mL CEA; DNA 10 uM; aptamer pre-hybridised to Walker; aptamer-Walker duplex formed in 1x PBS (0.01 M, pH 7.4) at 37 C for 1 h; sensor with 10 mM Mn2+; gel binding buffer not given in the available material. To be noted: protein displaces Walker.
carcinoembryonic antigen (CEA), sequence (P06731 35-685): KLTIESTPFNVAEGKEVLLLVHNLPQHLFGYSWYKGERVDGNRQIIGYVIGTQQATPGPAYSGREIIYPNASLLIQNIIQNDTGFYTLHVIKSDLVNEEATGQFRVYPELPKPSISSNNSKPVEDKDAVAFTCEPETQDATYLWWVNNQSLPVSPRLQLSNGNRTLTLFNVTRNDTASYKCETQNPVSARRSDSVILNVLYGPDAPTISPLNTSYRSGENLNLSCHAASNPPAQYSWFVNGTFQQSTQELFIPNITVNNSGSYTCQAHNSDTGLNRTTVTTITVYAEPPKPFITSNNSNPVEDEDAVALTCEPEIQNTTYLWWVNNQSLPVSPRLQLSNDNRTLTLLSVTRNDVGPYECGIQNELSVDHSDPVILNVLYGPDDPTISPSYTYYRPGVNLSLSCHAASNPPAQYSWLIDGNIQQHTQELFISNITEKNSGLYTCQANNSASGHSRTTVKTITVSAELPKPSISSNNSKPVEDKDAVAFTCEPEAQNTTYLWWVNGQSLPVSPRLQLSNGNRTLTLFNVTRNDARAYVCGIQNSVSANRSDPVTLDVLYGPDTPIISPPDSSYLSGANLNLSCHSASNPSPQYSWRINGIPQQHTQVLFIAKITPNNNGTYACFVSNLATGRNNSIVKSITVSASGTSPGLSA

Consider ATACCAGCTTATTCAATT (ssDNA) [CEA aptamer], for which the binding result was “binds”.
